Changes are numbered by the printed parent chain. Blank lines part the entries; values can stand above or below the binder they belong to.
Columns and labels:
[1] = molecular target: T1, Abeta42 beta amyloid peptide (UniProt P05067 672-713); assay: competition ELISA, purified antibody 0.003-16 ug/ml against biotinylated 6E10 (chimeric mouse 6E10) on coated beta amyloid, n=2
T1 construct: domain: Abeta42 beta amyloid peptide; also called Aβ42; Aβ

[2] = molecular target: T1, Abeta42 beta amyloid peptide; assay: competition ELISA, purified antibody against biotinylated 6E10 on coated beta amyloid; normalised to the row 'Mouse' (chimeric mouse 6E10); <1 improved
[3] = molecular target: T1, Abeta42 beta amyloid peptide; assay: competition ELISA, NS0 supernatant titrated against 0.25 ug/ml biotinylated mouse 6E10 (mouse MDT-2007) on coated beta amyloid; IC50 normalised to mouse 6E10 (=1; <1 improved)
[4] = molecular target: T1, Abeta42 beta amyloid peptide; assay: competition ELISA, purified antibody on coated beta amyloid (Table 4), against the mouse reference
[5] = molecular target: T1, Abeta42 beta amyloid peptide; assay: competition ELISA, purified antibody against biotinylated 6E10 (chimeric mouse 6E10) on coated beta amyloid; the reference row itself

T1 sequence (P05067 672-713 limits assumed): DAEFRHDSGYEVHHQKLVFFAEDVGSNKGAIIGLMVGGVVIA

B1: Composite human antibody variant VH4/VK1 (antibody, human IgG1, V domains shown)
VH: QVQLVQSGAEVKKPGASVKVSCTASGFNIKDTYIHWVRQARGQRLEWIGRFDPVNVNTRYDSRFRGRVTITSDASTNTAYMELSSLRSEDTAVYYCSRSYYNGRRRFTYWGQGTLVTVSS
VL: DIVMTQSPDSLTVSLGERATINCKASQSLLSSGNQKNYLTWYQQKPGQPPKLLIYWASIRESGVPDRFTGSGSGTFFTLTISSLQAEDVAVYYCQNDYNYPFTFGQGTKLEIK
notes: Human IgG1/kappa (pANT15/pANT13), NS0 cells; also called VH4/YK1
- IC50 [1]: 4.1 µg/mL
- Fold Difference (IC50 normalised to the reference) [2]: 1.14 fold
- fold difference in IC50 relative to mouse 6E10 [3]: 0.94 fold

B3: Composite human antibody variant VH5/VK2 (antibody, human IgG1, V domains shown)
VH: B1 VH with N77S
VL: B1 VL with D9S, V13A, L15V, E17D, A19V, N22T
notes: Human IgG1/kappa (pANT15/pANT13), NS0 cells
- IC50 [1]: 2.6 µg/mL
- Fold Difference (IC50 normalised to the reference) [2]: 0.72 fold
- fold difference in IC50 relative to mouse 6E10 [3]: 0.72 fold

B5: mouse 6E10 anti-Aβ antibody (antibody, V domains shown)
VH: EVQLQQSGAELVKPGASVKLSCTASGFNIKDTYIHWVKQRPEQGLEWIGRFDPVNVNTRYDSRFRGKATITSDASSNTAYLHLNSLTSEDTAVYYCSRSYYNGRRRFTYWGQGTLVTVSA
VL: DIVMTQSPSSLTVTAGEKVALTCKASQSLLSSGNQKNYLTWYQQKPGQPPKLLIYWASIRESGVPDRFTGSGSGTFFTLTISSVQAEDLAVYYCQNDYNYPFTFGSGTKLEIK
notes: Murine monoclonal from hybridoma 6E10 (Covance); also called 6E10 mouse antibody
- Fold Difference (IC50 normalised to the reference) [5]: 1 fold
- IC50 [1]: 3.6 µg/mL

Results, then the binder that gave them:

- fold increase in binding compared to the mouse reference [4]: 1.72 fold
- IC50 [1]: 2.1 µg/mL
- Fold Difference (IC50 normalised to the reference) [2]: 0.57 fold
- fold difference in IC50 relative to mouse 6E10 [3]: 0.67 fold
B2: MDT-2007 (composite human antibody sequence variant VH4/VK2) (antibody, human IgG1, V domains shown)
VH: B1 VH
VL: B1 VL with D9S, V13A, L15V, E17D, A19V, N22T
notes: as for B3

- IC50 [1]: 3.3 µg/mL
- Fold Difference (IC50 normalised to the reference) [2]: 0.91 fold
- fold difference in IC50 relative to mouse 6E10 [3]: 0.8 fold
B4: Composite human antibody variant VH5/VK1 (antibody, human IgG1, V domains shown)
VH: B1 VH with N77S
VL: B1 VL
notes: Human IgG1/kappa (pANT15/pANT13), NS0 cells; also called VH5/YK1

From patent EP2586797A2 (Medtronic, Inc., dated 2013)
